Patent US20050208042A1 (GENETICS INSTITUTE, published 2005)

B1: humanized anti-B7-1 mAb (humanized 1F1), isotype not stated in the example (antibody, V domains shown)
VH: EVQLVQSGAEVKKPGASVKVSCKPSGFNIKDYYMHWVRQAPGQGLEWIGWIDPENGNTLYDPKFQGKATITADTSTSTAYMELSSLRSEDTAVYYCAREGLFFAYWGQGTLVTVSS
VL: DIQMTQSPSSLSASVGDRVTITCSVSSSISSSNLHWYQQKPGKAPKPLIYGTSNLASGVPSRFSGSGSGTDYTLTISSLQPEDVATYYCQQWSSYPLTFGQGTKVEIK
notes: Same variable regions as m8; also called hu1F1
B2: murine 1F1 monoclonal antibody (murine anti-human B7-1 mAb) (antibody, V domains shown)
VH: EVHLQQSGAELVRPGALVKLSCKPSGFNIKDYYMHWVKQRPEQGLEWIGWIDPENGNTLYDPKFQGKASITADTSSNTAYLQLSSLTSEDTAVYYCAREGLFFAYWGQGTPVTVSA
VL: EIVLTQSPALMAASPGEKVTITCSVSSSISSSNLHWYQQKSETSPKPWIYGTSNLASGVPVRFSGSGSGTSYSLTISSMEAEDAATYYCQQWSSYPLTFGAGTKLELK
notes: Hybridoma mouse antibody with kappa light chain; also called mouse 1F1; murine anti-B7-1

Columns and labels:
[1] = target: T1, human B7-1 (CD80) expressed on the cell surface (CHO/hB7-1 cells) (human, UniProt P33681 35-288); assay: competitive binding against 125I-murine anti-B7-1 on CHO/hB7-1 cells; humanized anti-B7-1 mAb
T1 construct: whole, on cells; Also used for native B7-1 on human PBL in the MLR; also called rhB7-1
T1 sequence (looked up): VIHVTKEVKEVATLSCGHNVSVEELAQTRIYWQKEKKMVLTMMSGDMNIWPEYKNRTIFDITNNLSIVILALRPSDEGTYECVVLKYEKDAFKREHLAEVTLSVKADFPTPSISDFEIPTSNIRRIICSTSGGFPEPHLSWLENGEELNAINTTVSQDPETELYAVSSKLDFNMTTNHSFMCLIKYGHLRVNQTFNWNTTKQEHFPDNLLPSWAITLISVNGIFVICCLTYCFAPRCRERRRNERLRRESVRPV
Procedure: (§1) The relative affinities of the murine and humanized anti-B7-1 (1F1) antibodies for the B7-1 antigen were determined by competitive binding assays. Three-fold serial dilutions of the unlabeled murine or humanized anti-B7-1 mAbs were mixed with a fixed amount of radio-labeled murine anti-B7-1 mAb (¹²⁵I-anti-B7-1, 2800 cpm/fmol; 40,000-50,000 cpm/test in PBS containing 2% fetal calf serum). 1×10⁵ CHO/hB7-1 cells expressing hB7-1 on their surface were added subsequently and the mixture (total volume=200 μL) incubated for 2 hrs at 4° C. with gentle shaking. The cell antibody mixture was then transferred to Sarstedt Micro tubes (Part # 72.702) containing 100 μL of 80% dibutyl phthlate-20% olive oil. After centrifugation in a microfuge, the Sarstedt tubes were plunged into dry ice for several minutes. Cell bound ¹²⁵I-labeled mAb was determined by clipping the cell pellet containing tips of each tube into scintillation vials and counting in a gamma counter. Bound and free counts were determined. The bound counts were plotted against the concentration of the cold competitor mAbs.

[2] = target: T2, human B7-2 (CD86) expressed on the cell surface (CHO/hB7-2 cells) (human, UniProt P42081 24-329); assay: 125I direct binding, CHO cells expressing hB7-2 as control for non-specific binding
T2 construct: whole, on cells; Also used for native B7-2 on human PBL in the MLR row under functional; also called rhB7-2
T2 sequence (looked up): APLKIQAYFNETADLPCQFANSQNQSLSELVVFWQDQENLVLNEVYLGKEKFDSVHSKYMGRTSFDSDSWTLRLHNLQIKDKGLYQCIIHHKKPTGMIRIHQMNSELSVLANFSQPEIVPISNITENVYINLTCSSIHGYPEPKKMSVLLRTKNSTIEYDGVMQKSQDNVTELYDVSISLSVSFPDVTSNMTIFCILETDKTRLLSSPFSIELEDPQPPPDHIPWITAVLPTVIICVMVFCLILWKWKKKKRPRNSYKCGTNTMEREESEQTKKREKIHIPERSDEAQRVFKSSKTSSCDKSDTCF

[3] = target: T3, human B7-1Ig (recombinant soluble hB7-1Ig) (human, UniProt P33681 35-242); assay: SPR (BIACORE), hB7-1Ig immobilized, bivalent model, mean of three runs
T3 construct: extracellular domain; Secreted by CHO cells, purified on protein A, immobilized on the BIACORE chip; not shown: hinge-CH2-CH3 domains of human IgG1 heavy chain
T3 sequence (looked up): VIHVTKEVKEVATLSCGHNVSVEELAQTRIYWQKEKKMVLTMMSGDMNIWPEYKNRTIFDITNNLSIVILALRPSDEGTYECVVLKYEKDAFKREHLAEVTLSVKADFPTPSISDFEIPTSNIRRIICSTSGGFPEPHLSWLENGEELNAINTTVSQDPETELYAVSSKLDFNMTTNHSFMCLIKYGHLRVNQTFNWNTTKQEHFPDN
Procedure: (§2) The BIACORE® biosensor (BIACORE®, Uppsalla, Sweden) was used to determine binding kinetics of murine and humanized anti-B7-1 monoclonal antibodies to human B7-1Ig (hB7-1Ig) protein. Human B7-1Ig was immobilized onto the dextran matrix of a BIACORE® sensor chip. Humanized and murine anti-B7-1 mAbs were tested at 200, 100, 50, and 20 nM on the immobilized hB7-1Ig. Each mAb dilution was tested 4 times per run and a total of three separate runs were performed. Anti-human B7-1Ig binding was measured in real time by Surface Plasmon Resonance (SPR) and global analysis was performed using the bivalent binding model in BIA evaluation software (Version 3.1). For each sample, the association (kₐ) dissociation (kd) and equilibrium dissociation constant (KD) were determined.

[4] = target: T1, human B7-1 (CD80) expressed on the cell …; assay: cell-based or functional assay
[5] = target: T1, human B7-1 (CD80) expressed on the cell …; assay: competition binding on CHO/hB7-1 cells: unlabeled competitor against 125I-murine anti-B7-1 tracer, bound cpm
Procedure: as §1

[6] = target: T1, human B7-1 (CD80) expressed on the cell …; assay: direct binding of 125I-labeled antibody to CHO/hB7-1 cells, nonspecific binding (CHO cells with hB7-2) subtracted
Procedure: Binding assays were begun by plating CHO/hB7-1 cells onto 96 well tissue culture plates at 10,000 cells/well in complete medium and the plates incubated at 37° C. for two days. Adherent cells were washed gently with assay buffer (PBS containing nonfat dry milk and sodium azide). Murine and humanized anti-B7-1 mAbs labeled with ¹²⁵I were serially diluted in assay buffer and incubated with the cells overnight at 4° C. to allow biding to reach equilibrium. Unbound labeled antibody was removed from the cells by a series of gentle washings with assay buffer and the bound ¹²⁵I-labeled antibody was detected using a ¹²⁵I scintillant and detector system. Non-specific binding was determined for each dilution of labeled antibody in an identical manner as described above except that the target CHO cells expressed hB7-2 which is not bound by either the murine or humanized anti-B7-1 mAbs.
The mean value of triplicate determinations minus the non-specific binding was calculated and fit to a hyperbolic saturation binding curve using Graphpad Prism software. […] Both murine and humanized anti-B7-1 mAbs recognize cell surface expressed human B7-1.

[7] = target: T1, human B7-1 (CD80) expressed on the cell …; assay: competitive binding against 125I-murine anti-B7-1 on CHO/hB7-1 cells; murine anti-B7-1 mAb
Procedure: as §1

[8] = target: T1, human B7-1 (CD80) expressed on the cell …; assay: competition binding on CHO cells expressing rhB7-1: unlabeled competitor against 125I-humanized 1F1 tracer, bound/free ratio
Procedure: (§3) The affinity of the mouse and humanized 1F1 antibodies for the B7-1 antigen was determined by competitive binding with radio-iodinated humanized 1F1 antibody. Three-fold serial dilutions of unlabeled mouse or humanized 1F1 antibodies were mixed with a fixed amount of radio-iodinated humanized 1F1 antibody (40,000-50,000 cpm per test) in PBS containing 2% fetal calf serum, 0.1% sodium azide. 3×10⁴ CHO cells expressing cell surface rhB7-1 were added subsequently and the mixture (in a total volume of 200 μL) was incubated for 2 hr at 4° C. with gentle shaking. The cell-antibody suspension was then transferred to Sarstedt Micro Tubes (part #72.702) containing 100 μL of 80% dibutyl phthalate-20% olive oil. After centrifugation in a microfuge, the Sarstedt tubes were plunged into dry ice for several minutes. Cell-bound ¹²⁵I was determined by clipping the tips of each tube (containing cell pellets) into scintillation vials and counting in a gamma counter. Bound and free counts were determined and the ratio plotted against the concentrations of the cold competitor antibodies according to the method of Berzofsky and Berkower (J. A. Berzofsky and I. J. Berkower, in Fundamental Immunology, W. E. Paul, Raven Press, New York, pp. 595-644 (1984)).

[9] = target: T3, human B7-1Ig (recombinant soluble …); assay: SPR (BIACORE), hB7-1Ig immobilized
Procedure: as §2

[10] = target: T1, human B7-1 (CD80) expressed on the cell …; assay: competitive binding against 125I-humanized 1F1 on CHO cells expressing rhB7-1
Procedure: as §3

Binder | Kd [1] [nM] | binding result [2] | Kd [3] [nM] | IC50 of inhibition of CD28+ human T cell proliferation stimulated with PMA and CHO/hB7-1 cells [4] [nM] | IC50 (read off the curve) [5] [nM] | EC50 (read off the curve) [6] [nM] | Kd [7] [nM] | IC50 (read off the curve) [8] [nM] | fold higher binding affinity than the humanized anti-B7-1 mAb [9] [fold] | Ka [10] [M⁻¹]
B1 | ~1 | no binding | 2.8 | 0.11 | ~2 | ~1 | – | – | – | –
B2 | – | no binding | 0.56 | 0.22 | ~1 | – | ~1 | ~1 | 5 | ~1e+09
